Here are results for four substances from article PMC5407892.

Data set [1] concerns EhDNAligI full-length (DNA ligase I) (Entamoeba histolytica). The experiment in a line: fluorescence anisotropy. The following applies: 3' dideoxy-C at the nick that halts ligation; Anisotropy: 50 mM Tris/HCl pH 7.5, 25 mM NaCl, 5 mM DTT, 10 mM MgCl2, 250 ug/mL BSA, 1 mM ATP, 30 C; footprinting: 50 mM Tris/HCl pH 7.5, 6.6 mM MgCl2, 5 mM ….
In data set [2] the test system is EhDNAligI full-length (DNA ligase I);EhPCNA (Entamoeba histolytica;Entamoeba histolytica). The experiment in a line: fluorescence anisotropy. As to conditions: 3' dideoxy-C at the nick that halts ligation; Anisotropy: 50 mM Tris/HCl pH 7.5, 25 mM NaCl, 5 mM DTT, 10 mM MgCl2, 250 ug/mL BSA, 1 mM ATP, 30 C; footprinting: 50 mM Tris/HCl pH 7.5, 6.6 mM MgCl2, 5 mM ….
The test system of data set [3] is EhDNAligI full-length (DNA ligase I);HsPCNA (Entamoeba histolytica;Homo sapiens). The experiment in a line: fluorescence anisotropy. The following applies: with HsPCNA, 10 mM Mg2+, 1 mM ATP, 3' dideoxy-C at the nick that halts ligation, Anisotropy: 50 mM Tris/HCl pH 7.5, 25 mM NaCl, 5 mM DTT, 10 mM MgCl2, 250 ug/mL BSA, 30 C, footprinting: 50 mM Tris/HCl pH 7.5, 6.6 mM MgCl2, 5 mM …. For orientation: In fluorescence polarisation assays a small probe gives low polarisation when free and higher when bound to something large.

In data set [4] the test system is EhDNAligI ΔDBD;EhPCNA (Entamoeba histolytica;Entamoeba histolytica). The experiment in a line: fluorescence anisotropy. The following applies: 3' dideoxy-C at the nick that halts ligation; Anisotropy: 50 mM Tris/HCl pH 7.5, 25 mM NaCl, 5 mM DTT, 10 mM MgCl2, 250 ug/mL BSA, 1 mM ATP, 30 C; footprinting: 50 mM Tris/HCl pH 7.5, 6.6 mM MgCl2, 5 mM ….
The test system of data set [5] is EhDNAligI ΔPIP (Entamoeba histolytica). Kind of data set: fluorescence anisotropy. As to conditions: 3' dideoxy-C at the nick that halts ligation; Anisotropy: 50 mM Tris/HCl pH 7.5, 25 mM NaCl, 5 mM DTT, 10 mM MgCl2, 250 ug/mL BSA, 1 mM ATP, 30 C; footprinting: 50 mM Tris/HCl pH 7.5, 6.6 mM MgCl2, 5 mM ….
Data set [6] has as its system EhDNAligI ΔPIP;EhPCNA (Entamoeba histolytica;Entamoeba histolytica). Kind of data set: fluorescence anisotropy. As to conditions: 3' dideoxy-C at the nick that halts ligation; Anisotropy: 50 mM Tris/HCl pH 7.5, 25 mM NaCl, 5 mM DTT, 10 mM MgCl2, 250 ug/mL BSA, 1 mM ATP, 30 C; footprinting: 50 mM Tris/HCl pH 7.5, 6.6 mM MgCl2, 5 mM ….
The target in data set [7] is EhDNAligI-Phe11Ala:Phe12Ala (Entamoeba histolytica).
Data set [8] concerns the target Entamoeba histolytica DNA ligase I, full-length (Entamoeba histolytica).
Data set [9] addresses EhDNAligI deletion mutant lacking its first 39 amino acids including the PIP box (Entamoeba histolytica).
The target of data set [10] is Entamoeba histolytica DNA ligase I, full-length (Entamoeba histolytica). This is another data set of the same source.

Broadly, the Kd is the free concentration of one partner at which half of the binding sites on the other are occupied at equilibrium, for simple one-to-one binding. High values mean weaker binding, low ones tighter binding. As to “3'-FAM nicked dsDNA (anisotropy substrate)”, the Kd in data set [1] came out at 72.1 nM; in [2], 6.2 nM; in [3], 11.3 nM; in [4], 95.5 nM; in data set [5], 82.1 nM; in [6], 10.2 nM.

Take EhPCNA-V127A-I129A (natural protein): the stimulation of nick-sealing activity (time course) by the EhPCNA mutant in [7] is below 2.4 fold.

EhPCNA-Δ254 (natural protein) gave a stimulation of nick-sealing activity (time course) by the EhPCNA mutant in [7] below 2.4 fold.

For the substance “Entamoeba histolytica proliferating cell nuclear antigen (natural protein)”, the affinity of the ligase for 3′-FAM-labeled nicked DNA by fluorescence anisotropy, with against without EhPCNA in data set [8] is 11 fold. Besides, the catalytic efficiency (k cat/K m) of steady-state ligation, with against without EhPCNA in data set [9] and in [10] was above 18 fold in each case. In data set [7], the stimulation of nick-sealing activity (time course) by wild-type EhPCNA was 9.8 fold.
